Assay results from PMC5222517.

What was measured:
[1] = target: HIV-1 Env (HXB2 strain) homotrimer with L544S in gp41 (HIV-1 (HXB2 strain))
[2] = target: HIV-1 Env (HXB2 strain) homotrimer with V549A in gp41 (HIV-1 (HXB2 strain))
[3] = target: HIV-1 Env (HXB2 strain) homotrimer with Q552R/N637K in gp41 (HIV-1 (HXB2 strain))
[4] = target: HIV-1 Env (HXB2 strain) homotrimer with N656D in gp41 (HIV-1 (HXB2 strain))

C-peptide T20
fold resistance to T20 in inhibition of infection by pseudotyped HIV-1, L544S against wild type Env (HXB2) homotrimers (U87.CD4.CXCR4 cells) [1]: 30 fold | fold resistance to T20 in inhibition of infection by pseudotyped HIV-1, V549A against wild type Env (HXB2) homotrimers (U87.CD4.CXCR4 cells) [2]: 50 fold

C-peptide C37-KYI (from UniProt P04578 625-661)
IC50.1 (high potency phase, fraction f = 0.31) of C37-KYI inhibition of infection by pseudotyped HIV-1, two-site inhibition model (HOS-CXCR4+ cells) [3]: 8 nM | IC50.2 (low potency phase, fraction 1 - f) of C37-KYI inhibition of infection by pseudotyped HIV-1, two-site inhibition model (HOS-CXCR4+ cells) [3]: 180 nM

5-Helix, mutant version with L556A/V570A in all three N-HR segments (from UniProt P04578 543-582; P04578 625-661; P04578 543-582; P04578 625-661; P04578 543-582) (designed binder)
fold resistance to 5H (LAVA) in inhibition of infection by pseudotyped HIV-1, N656D against wild type Env (HXB2) homotrimers [4]: > 100 fold
